The values that follow come from paper PMC9237525, “Solution Structure of Tubuliform Spidroin N-Terminal Domain and Implications for pH Dependent Dimerization” (Frontiers in Molecular Biosciences, 2022).

In series [1] the target is Argiope argentata TuSp NT E37Q E82Q (Argiope argentata). The series is described as follows: SEC; Superdex 75 Increase 10/300 GL, 50 µl at 3 mg/ml, 20 mM NaOAc, 20 mM NaCl, pH 5.5. On the technique in general: SEC sorts molecules by how far they enter the pores of the column.
In series [2] the target is Argiope argentata TuSp NT E37Q E82Q E85Q (Argiope argentata). The series is described as above.
In series [3] the target is Argiope argentata TuSp NT E37Q E82Q E85Q D130N (Argiope argentata). The description is as above.
Series [4] deals with the molecule itself. The series is described as follows: 15N NMR relaxation (rotational correlation time); pH 5.5; T1 and T2 of backbone amides, 800 MHz; molecular weight estimated from the correlation time.

In turn, “Argiope argentata TuSp NT E37Q E82Q (domain or fragment)” displayed a stoichiometry N in series [1] of 2. Take “Argiope argentata TuSp NT E37Q E82Q E85Q (domain or fragment)”: the stoichiometry N in series [2] was determined as 2.

In turn, “Argiope argentata TuSp NT E37Q E82Q E85Q D130N (domain or fragment)” had a stoichiometry N in series [3] of 2.

B1: Argiope argentata tubuliform spidroin (TuSp 1) N-terminal domain, wild type (domain or fragment)
chain: AVTAVPSVFSSPNLASGFLQCLTFGIGNSPAFPTQEQQDLDAIAQVILNAVSTNTGATASARAQALSTALASSLTDLLIAESAESNYNNQLSELTGILSNCFIQTTGSDNPAFVSRIQSLISVLSQNTDVNIISTA
notes: Tubuliform spidroin 1 (TuSp 1) N-terminal domain, Argiope argentata; 136 residues (count printed for the A70E variant); Expressed from pET-32a-HisTrxHisNT; Intramolecular disulfide C22-C102; 15N- or 13C,15N-labelled for NMR; Calculated mass 14.1 kDa (monomer); also called TuSp NT; wt TuSp NT; not shown: His-Trx, N-terminal, cleaved
For the molecule B1, in series [4], the “stoichiometry N” value was 2.

Broadly, the stoichiometry N is the number of molecules, sites or subunits per partner or assembly.
